Test results from patent US6632625 (MERCK, dated 2003).

Biological target: T1, recombinant human leptin (human, UniProt P41159 22-167, 125I label on the tracer form (125I-leptin, NEN); position not stated)
T1 construct: also called recombinant leptin; 125I-leptin
Assay: 125I-leptin binding on transfected COS cells

T1 sequence (P41159 22-167 limits assumed): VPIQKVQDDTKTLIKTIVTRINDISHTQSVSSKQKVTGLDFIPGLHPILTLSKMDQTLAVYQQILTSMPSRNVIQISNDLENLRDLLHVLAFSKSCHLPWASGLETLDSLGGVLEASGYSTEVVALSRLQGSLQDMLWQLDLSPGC

B1: substitution mutant (420-496)TO(500-632) of the human OB-R (receptor)
chain: FNLSYPITPWRFKLSCMPPNSTYDYFLLPAGLSKNTSNSNGHYETAVEPKFNSSGTHFSNLSKTTFHCCFRSEQDRNCSLCADNIEGKTFVSTVNSLVFQQIDANWNIQCWLKGDLKLFICYVESLFKNLFRNYNYKVHLLYVLPEVLEDSPLVPQKGSFQMVHCNCSVHECCECLVPVPTAKLNDTLLMCLKITSGGVIFQSPLMSVQPINMVKPDPPLGLHMEITDDGNLKISWSSPPLVPFPLQYQVKYSENSTTVIREADKIVSATSLLVDSILPGSSYEVQVRGKRLDGPGIWSDWSTPRVFTTQDVIYFPPKILTSVGSNVSFHCIYKKENKIVPSKEIVWWMNLAEKIPQSQYDVVSDHVSKVTFFNLNETKPRGKFTYDAVYCCNEHECHFQPIFLLSGYTMWIRINHSLGSLDSPPTCVLPDSVVKPLPPSSVKAEITINIGLLKISWEKPVFPENNLQFQIRYGLSGKEVQWKMYEVYDAKSKSVSLPVPDLCAVYAVQVRCKRLDGLGYWSNWSNPAYTVECIFQPIFLLSGYTMWIRINHSLGSLDSPPTCVLPDSVVKPLPPSSVKAEITINIGLLKISWEKPVFPENNLQFQIRYGLSGKEVQWKMYEVYDAKSKSVSLPVPDLCAVYAVQVRCKRLDGLGYWSNWSNPAYTVVMDIKVPMRGPEFWRIINGDTMKKEKNVTLLWKPLMKNDSLCSVQRYVINHHTSCNGTWSEDVGNHTKFTFLWTEQAHTVTVLAINSIGASVANFNLTFSWPMSKVNIVQSLSAYPLNSSCVIVSWILSPSDYKLMYFIIEWKNLNEDGEIKWLRISSSVKKYYIHDHFIPIEKYQFSLYPIFMEGVGKPKIINSFTQDDIEKHQSDAGLYVIVPVIISSSILLLGTLLISHQRMKKLFWEDVPNPKNCSWAQGLNFQKPETFEHLFIKHTASVTCGPLLLEPETISEDISVDTSWKNKDEMMPTTVVSLLSTTDLEKGSVCISDQFNSVNFSEAEGTEVTYEAESQRQPFVKYATLISNSKPSETGEEQGLINSSVTKCFSSKNSPLKDSFSNSSWEIEAQAFFILSDQHPNIISPHLTFSEGLDELLKLEGNFPEENNDKKSIYYLGVTSIKKRESGVLLTDKSRVSCPFPAPCLFTDIRVLQDSCSHFVENNINLGTSSKKTFASYMPQFQTCSTQTHKIMENKMCDLTV
binding result: no binding (tested: 0.2 nM)
